B1: Example 2: peptide having analgesic and antitumor activity purified from homogenized scorpion by the processes of Example 1; SEQ ID NO: 1 (protein)
chain: VRDGYIADDKNCAYFCGRNAYCDDECKKNGAESGYCQWAGVYGNACWCYKLPDKVPIRVPGKCNGG
modifications: Scorpion

Tests used:
Format in all cases: in vivo
S180 sarcoma solid tumor = test: mouse S180 sarcoma solid tumor model, inhibitory rate of tumor weight; conditions: S180, dose 60.0 mg/kg weight (positive control)
Procedure: (§1) In mouse experimental tumor model, such as ehrlich ascites carcinoma and S180 entity tumor, the peptide derived from the scorpion or partial fragment, derivative or analogue thereof having analgesic and antitumor activity obtained in example 1,2 and 6 was injected subcutaneously in a dose of 0.1 mg/kg weight to 16.0 mg/kg weight for continuous seven days. […] For example, the peptide of the SDS-PAGE single band obtained in Example 1 was administrated at the dose of 0.639 mg/kg weight. […] The peptide derived from the scorpion or partial fragment, derivative or analogue thereof having analgesic and antitumor activity obtained in example 1,2 and 6 was administrated by stomach infusion in a dose of 0.1 mg/kg weight to 16.0 mg/kg weight for continuous ten days.

[1] = test system: ehrlich ascites carcinoma; test: mouse ehrlich ascites carcinoma model, rate of life prolonging
Procedure: as §1

[2] = test system: writhing response of mouse (acetic acid writhing model); conditions: administered by stomach infusion
Procedure: (§2) The above samples were administrated by stomach infusion in a dose of 0.1 mg/kg weight to 16.0 mg/kg weight. […] In the mouse heat plate model, the above samples were administrated by intravenous injection in a dose of 0.1 mg/kg weight to 16.0 mg/kg weight. […] For example, the peptide of SDS-PAGE single band obtained in example 1 and 2 were injected intravenously at 0.6 mg/kg weight.

mouse heat plate model = mouse heat plate model (pain threshold); conditions: 0.6 mg/kg weight intravenously
Procedure: as §2

| Molecule | inhibitory rate of tumor weight (S180 sarcoma solid tumor) | rate of life prolonging ([1]; dose 60.0 mg/kg weight, subcutaneous injection (positive control)) | ED50 (median effective dose) [2] | pain threshold raised in a rate of (mouse heat plate model; at 5 min) | pain threshold raised in a rate of (mouse heat plate model; at 15 min) | pain threshold raised in a rate of (mouse heat plate model; at 25 min) | pain threshold raised in a rate of (mouse heat plate model; at 35 min) | pain threshold raised in a rate of (mouse heat plate model; at 45 min) | pain threshold raised in a rate of (mouse heat plate model; at 60 min) | pain threshold raised in a rate of (mouse heat plate model; at 90 min) | rate of life prolonging ([1]; stomach infusion, dose 0.213 mg/kg weight, ten days) | rate of life prolonging ([1]; stomach infusion, dose 0.639 mg/kg weight, ten days) |
| --- | --- | --- | --- | --- | --- | --- | --- | --- | --- | --- | --- | --- |
| O=P1(N(CCCl)CCCl)NCCCO1 (stereo not drawn) [cyclophosphamide, reference compound] | 50.5% | 15.6% | – | – | – | – | – | – | – | – | – | – |
| B1 | – | – | 2.86 mg/kg weight | 16.5% | 145.7% | 219.1% | 219.1% | 177.6% | 32.4% | 14.9% | 16.8% | 31.5% |

Reference: patent US7592309B2, “Method of using a peptide having analgesic and antitumor activity from scorpion” (priority 2001, dated 2009)
